Laboratory results published in paper PMC10349104.
Several values for one entry are separate records, joined by “and”; a condition that tells them apart may be missing. Identical values can stand only once.

What was measured:
Assay in all cases: SPR
[1] = target: EVA-A(L39P) (A. americanum)
[2] = target: EVA-A(C8) (Amblyomma americanum)
[3] = target: EVA-A(1-98) (A. americanum)
[4] = target: EVA-A(21-102) (A. americanum)
[5] = target: EVA-A(Y44A) (Amblyomma americanum)
[6] = target: EVA-A(Y44A) (A. americanum)
[7] = target: EVA-A(DC) (Amblyomma americanum)
[8] = target: EVA-A(C8) (A. americanum)
[9] = target: EVA-A(L39P) (Amblyomma americanum)
[10] = target: EVA-A(DN) (Amblyomma americanum)

CCL11, sequence (P51671 24-97): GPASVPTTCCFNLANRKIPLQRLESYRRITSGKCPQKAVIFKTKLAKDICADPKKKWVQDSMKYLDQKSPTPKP
CCL26, sequence (Q9Y258 24-94): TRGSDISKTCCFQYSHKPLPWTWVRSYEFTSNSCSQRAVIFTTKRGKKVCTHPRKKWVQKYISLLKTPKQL
CCL17, sequence (Q92583 24-94): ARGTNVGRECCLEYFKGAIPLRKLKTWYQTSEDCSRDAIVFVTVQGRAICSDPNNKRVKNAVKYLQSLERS
CCL13, sequence (Q99616 17-98): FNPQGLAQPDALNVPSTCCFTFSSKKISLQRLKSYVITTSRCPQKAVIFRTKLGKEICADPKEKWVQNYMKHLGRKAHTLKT
CCL1, sequence (P22362 24-96): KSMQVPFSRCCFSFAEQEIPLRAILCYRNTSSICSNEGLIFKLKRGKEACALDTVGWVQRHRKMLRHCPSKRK
CCL19, sequence (Q99731 22-98): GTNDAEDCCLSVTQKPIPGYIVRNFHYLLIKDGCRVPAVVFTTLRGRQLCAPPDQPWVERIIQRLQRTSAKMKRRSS
CCL4, sequence (P13236 24-92): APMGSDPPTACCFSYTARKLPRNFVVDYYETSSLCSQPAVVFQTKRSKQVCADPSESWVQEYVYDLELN
CCL3, sequence (P10147 24-92): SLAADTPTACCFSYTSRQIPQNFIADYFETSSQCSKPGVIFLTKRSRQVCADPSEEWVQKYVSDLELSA
CCL24, sequence (O00175 27-119): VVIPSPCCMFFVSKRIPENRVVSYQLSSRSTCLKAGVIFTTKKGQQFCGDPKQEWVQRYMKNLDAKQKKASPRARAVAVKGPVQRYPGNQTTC

Substance | Kd [1] [nM] | koff [1] [s⁻¹] | kon [1] [M⁻¹ s⁻¹] | Kd [2] | Kd [3] [nM] | koff [3] [s⁻¹] | kon [3] [M⁻¹ s⁻¹] | Kd [4] [nM] | koff [4] [s⁻¹] | kon [4] [M⁻¹ s⁻¹] | Kd [5] | koff [5] | Kd [6] [nM] | koff [6] [s⁻¹] | kon [6] [M⁻¹ s⁻¹] | Kd [7] | koff [7] | Kd [8] [nM] | Kd [9] | Kd [10] | also measured
CCL4 (from UniProt P13236 24-92) (ligand) | 0.3 | 0.00023 | 805000 | 70.8 nM and 65.2 nM and 78.1 nM | 8.56 | 0.00087 | 165000 | 4.95 | 0.00218 | 461000 | 0.753 nM and 0.7 nM and 0.513 nM | 0.000169 s⁻¹ and 0.000191 s⁻¹ and 0.000236 s⁻¹ | 0.66 | 0.0002 | 319000 | 4.06 nM and 17.6 nM and 4.03 nM | 0.000873 s⁻¹ and 0.000943 s⁻¹ and 0.00091 s⁻¹ | 71.3 | 0.291 nM and 0.278 nM and 0.333 nM | 4.26 nM and 4.21 nM and 6.38 nM | koff [2]: 0.0133 s⁻¹ and 0.0132 s⁻¹ and 0.0382 s⁻¹; kon [2]: 188000 M⁻¹ s⁻¹ and 202000 M⁻¹ s⁻¹ and 489000 M⁻¹ s⁻¹; kon [5]: 224000 M⁻¹ s⁻¹ and 273000 M⁻¹ s⁻¹ and 460000 M⁻¹ s⁻¹; koff [8]: 0.0215 s⁻¹; kon [8]: 293000 M⁻¹ s⁻¹; koff [9]: 0.000211 s⁻¹ and 0.000223 s⁻¹ and 0.000297 s⁻¹; kon [9]: 724000 M⁻¹ s⁻¹ and 801000 M⁻¹ s⁻¹ and 890000 M⁻¹ s⁻¹; koff [10]: 0.00229 s⁻¹ and 0.00217 s⁻¹ and 0.00209 s⁻¹; kon [10]: 538000 M⁻¹ s⁻¹ and 516000 M⁻¹ s⁻¹ and 328000 M⁻¹ s⁻¹
CCL19 (from UniProt Q99731 22-98) (ligand) | 1.34 | 0.00036 | 278000 | 13.2 nM and 15.6 nM and 19.7 nM | 0.16 | 3e-05 | 144000 | 1.58 | 0.00053 | 342000 | 0.676 nM and 0.642 nM and 0.935 nM | 0.000322 s⁻¹ and 0.000363 s⁻¹ and 0.000401 s⁻¹ | 0.75 | 0.00036 | 490000 | 0.209 nM and 0.0874 nM and 0.187 nM | 3.17e-05 s⁻¹ and 1.17e-05 s⁻¹ and 2.75e-05 s⁻¹ | 16.1 | 1.4 nM and 1 nM and 1.62 nM | 1.34 nM and 1.49 nM and 1.92 nM | kon [5]: 477000 M⁻¹ s⁻¹ and 566000 M⁻¹ s⁻¹ and 428000 M⁻¹ s⁻¹; kon [7]: 151000 M⁻¹ s⁻¹ and 134000 M⁻¹ s⁻¹ and 147000 M⁻¹ s⁻¹; koff [8]: 0.00345 s⁻¹; kon [8]: 245000 M⁻¹ s⁻¹; koff [9]: 0.000327 s⁻¹ and 0.000349 s⁻¹ and 0.000407 s⁻¹; kon [9]: 233000 M⁻¹ s⁻¹ and 348000 M⁻¹ s⁻¹ and 252000 M⁻¹ s⁻¹; koff [10]: 0.000471 s⁻¹ and 0.000557 s⁻¹ and 0.000576 s⁻¹; kon [10]: 352000 M⁻¹ s⁻¹ and 373000 M⁻¹ s⁻¹ and 301000 M⁻¹ s⁻¹
CCL13 (from UniProt Q99616 17-98) (ligand) | < 0.1 | < 0.0001 | 3.26e+06 | 2.74 nM and 3.26 nM | 1.42 | 0.00063 | 458000 | 0.3 | 0.00087 | 2.94e+06 | 0.0154 nM and 0.0339 nM and 0.0439 nM | 5.53e-05 s⁻¹ and 6.98e-05 s⁻¹ and 0.000105 s⁻¹ | < 0.1 | < 0.0001 | 2.68e+06 | 1.4 nM (2×) and 1.45 nM | 0.000625 s⁻¹ and 0.000669 s⁻¹ and 0.000651 s⁻¹ | 2.91 | 0.0116 nM and 0.0158 nM and 0.035 nM | 0.298 nM and 0.304 nM and 0.285 nM | koff [2]: 0.00454 s⁻¹ and 0.00359 s⁻¹; kon [2]: 1.66e+06 M⁻¹ s⁻¹ and 1.1e+06 M⁻¹ s⁻¹; kon [5]: 3.58e+06 M⁻¹ s⁻¹ and 2.06e+06 M⁻¹ s⁻¹ and 2.4e+06 M⁻¹ s⁻¹; kon [7]: 448000 M⁻¹ s⁻¹ and 461000 M⁻¹ s⁻¹ and 466000 M⁻¹ s⁻¹; koff [8]: 0.00423 s⁻¹; kon [8]: 1.47e+06 M⁻¹ s⁻¹; kon [9]: 2.5e+06 M⁻¹ s⁻¹ and 4.09e+06 M⁻¹ s⁻¹ and 3.18e+06 M⁻¹ s⁻¹; koff [10]: 0.000931 s⁻¹ and 0.000845 s⁻¹ and 0.000833 s⁻¹; kon [10]: 3.12e+06 M⁻¹ s⁻¹ and 2.78e+06 M⁻¹ s⁻¹ and 2.92e+06 M⁻¹ s⁻¹
CCL11 (from UniProt P51671 24-97) (ligand) | 3.32 | 0.00372 | 1.4e+06 | 842 nM and 836 nM and 312 nM | 487 | 0.0537 | 101000 | 507 | 0.218 | 454000 | 1.67 nM and 1.9 nM and 1.61 nM | 0.00144 s⁻¹ and 0.00137 s⁻¹ and 0.00169 s⁻¹ | 1.73 | 0.0015 | 877000 | 481 nM and 474 nM and 507 nM | 0.0537 s⁻¹ and 0.0345 s⁻¹ and 0.0604 s⁻¹ | 663 | 3.46 nM and 2.95 nM and 3.55 nM | 750 nM and 383 nM and 390 nM | kon [5]: 862000 M⁻¹ s⁻¹ and 719000 M⁻¹ s⁻¹ and 1.05e+06 M⁻¹ s⁻¹; kon [7]: 112000 M⁻¹ s⁻¹ and 72900 M⁻¹ s⁻¹ and 119000 M⁻¹ s⁻¹; koff [8]: 0.196 s⁻¹; kon [8]: 236000 M⁻¹ s⁻¹; koff [9]: 0.00417 s⁻¹ and 0.00433 s⁻¹ and 0.00541 s⁻¹; kon [9]: 1.2e+06 1/(M s) and 1.5e+06 1/(M s) (2×); koff [10]: 0.264 s⁻¹ and 0.203 s⁻¹ and 0.187 s⁻¹; kon [10]: 352000 M⁻¹ s⁻¹ and 531000 M⁻¹ s⁻¹ and 480000 M⁻¹ s⁻¹
CCL3 (from UniProt P10147 24-92) (ligand) | 0.32 | 0.0004 | 1.22e+06 | 36.6 nM and 43.3 nM and 41.1 nM | 1.77 | 0.00058 | 345000 | 3.23 | 0.00144 | 449000 | 1.2 nM and 0.464 nM | 0.000428 s⁻¹ and 0.000445 s⁻¹ and 0.000452 s⁻¹ | 0.95 | 0.00044 | 566000 | 1.67 nM and 1.95 nM and 1.68 nM | 0.000578 s⁻¹ and 0.000636 s⁻¹ and 0.00061 s⁻¹ | 40.3 | 0.356 nM and 0.205 nM and 0.394 nM | 2.89 nM and 3.24 nM and 3.57 nM | kon [5]: 357000 M⁻¹ s⁻¹ and 369000 M⁻¹ s⁻¹ and 973000 M⁻¹ s⁻¹; kon [7]: 345000 M⁻¹ s⁻¹ and 326000 M⁻¹ s⁻¹ and 363000 M⁻¹ s⁻¹; koff [8]: 0.0464 s⁻¹; kon [8]: 1.08e+06 M⁻¹ s⁻¹; koff [9]: 0.000296 s⁻¹ and 0.000365 s⁻¹ and 0.000413 s⁻¹; kon [9]: 831000 M⁻¹ s⁻¹ and 1.78e+06 M⁻¹ s⁻¹ and 1.05e+06 M⁻¹ s⁻¹; koff [10]: 0.00144 s⁻¹ and 0.00146 s⁻¹ and 0.00142 s⁻¹; kon [10]: 498000 M⁻¹ s⁻¹ and 452000 M⁻¹ s⁻¹ and 397000 M⁻¹ s⁻¹
CCL24 (from UniProt O00175 27-119) (ligand) | 9.58 | 0.00121 | 111000 | 697 nM and 394 nM and 252 nM | 28.1 | 0.00111 | 36000 | 19.9 | 0.00091 | 46000 | 46.6 nM and 88.7 nM and 70.7 nM | 0.00131 s⁻¹ and 0.0022 s⁻¹ and 0.00184 s⁻¹ | 68.6 | 0.00179 | 26000 | 23.6 nM and 30.9 nM and 29.7 nM | 0.00111 s⁻¹ and 0.000885 s⁻¹ and 0.000951 s⁻¹ | 447 | 9.33 nM and 9.02 nM and 10.4 nM | 19.3 nM and 20.8 nM and 19.7 nM | kon [2]: 23800 M⁻¹ s⁻¹ and 14800 M⁻¹ s⁻¹ and 14400 M⁻¹ s⁻¹; kon [5]: 28200 M⁻¹ s⁻¹ and 24800 M⁻¹ s⁻¹ and 26000 M⁻¹ s⁻¹; kon [7]: 47000 M⁻¹ s⁻¹ and 28600 M⁻¹ s⁻¹ and 32100 M⁻¹ s⁻¹; koff [8]: 0.00869 s⁻¹; kon [8]: 18000 M⁻¹ s⁻¹; koff [9]: 0.000856 s⁻¹ and 0.0013 s⁻¹ and 0.00101 s⁻¹; kon [9]: 91800 M⁻¹ s⁻¹ and 144000 M⁻¹ s⁻¹ and 96500 M⁻¹ s⁻¹; koff [10]: 0.000922 s⁻¹ and 0.00125 s⁻¹ and 0.000564 s⁻¹; kon [10]: 47700 M⁻¹ s⁻¹ and 60300 M⁻¹ s⁻¹ and 28700 M⁻¹ s⁻¹
CCL26 (from UniProt Q9Y258 24-94) (ligand) | 0.19 | 0.00078 | 2.63e+06 | 56.4 nM and 69.6 nM and 86.6 nM | 1.89 | 0.00048 | 357000 | 9.24 | 0.00049 | 53000 | 3.9 nM and 3.21 nM and 1.71 nM | 0.00136 s⁻¹ and 0.000659 s⁻¹ and 0.00101 s⁻¹ | 2.94 | 0.00101 | 381000 | 1.25 nM and 1.65 nM and 2.78 nM | 0.000481 s⁻¹ and 0.000673 s⁻¹ and 0.000777 s⁻¹ | 70.9 | 0.183 nM and 0.176 nM and 0.197 nM | 9.99 nM and 8.95 nM and 8.79 nM | koff [2]: 0.00101 s⁻¹ and 0.000925 s⁻¹ and 0.00104 s⁻¹; kon [2]: 17900 M⁻¹ s⁻¹ and 13300 M⁻¹ s⁻¹ and 12000 M⁻¹ s⁻¹; kon [5]: 348000 M⁻¹ s⁻¹ and 205000 M⁻¹ s⁻¹ and 590000 M⁻¹ s⁻¹; kon [7]: 384000 M⁻¹ s⁻¹ and 407000 M⁻¹ s⁻¹ and 280000 M⁻¹ s⁻¹; koff [8]: 0.00099 s⁻¹; kon [8]: 14000 M⁻¹ s⁻¹; koff [9]: 0.000504 s⁻¹ and 0.000271 s⁻¹ and 0.000714 s⁻¹; kon [9]: 2.75e+06 M⁻¹ s⁻¹ and 1.53e+06 M⁻¹ s⁻¹ and 3.62e+06 M⁻¹ s⁻¹; koff [10]: 0.000506 s⁻¹ and 0.000395 s⁻¹ and 0.000556 s⁻¹; kon [10]: 50600 M⁻¹ s⁻¹ and 44200 M⁻¹ s⁻¹ and 63300 M⁻¹ s⁻¹
CCL17 (from UniProt Q92583 24-94) (ligand) | 7.49 |  |  | 77 nM and 67.5 nM and 147 nM | < 0.1 |  |  | 1.04 |  |  | 65.8 nM and 104 nM and 15.8 nM |  | 61.9 |  |  |  |  | 97.1 | 3.31 nM and 3.25 nM and 15.9 nM | 1.06 nM and 1.05 nM and 1.01 nM | 
CCL1 (from UniProt P22362 24-96) (ligand) | 57.5 | 0.00167 | 17000 |  | 406 | 0.00168 | 6000 | 457 | 0.18 | 268000 | 30.2 nM and 67.9 nM and 51.6 nM | 0.00285 s⁻¹ and 0.00348 s⁻¹ and 0.00135 s⁻¹ | 49.9 | 0.00256 | 57000 | 327 nM and 241 nM and 650 nM | 0.00168 s⁻¹ and 0.00255 s⁻¹ and 0.00199 s⁻¹ |  | 44.7 nM and 48.2 nM and 79.6 nM | 686 nM and 369 nM and 318 nM | koff [9]: 0.000863 s⁻¹ and 0.00063 s⁻¹ and 0.00153 s⁻¹; kon [9]: 19300 M⁻¹ s⁻¹ and 13100 M⁻¹ s⁻¹ and 19200 M⁻¹ s⁻¹
